Source: patent publication US20220025071A1 (BIOMOLECULAR, published 2022)

B1: B19c66 (one-arm antibody) (antibody, human IgG1, kappa)
light: not shown
heavy: not shown
chain: CPPCPAPELLGGPSVFLFPPKPKDTLMISRTPEVTCVVVDVSHEDPEVKFNWYVDGVEVHNAKTKPREEQYNSTYRVVSVLTVLHQDWLNGKEYKCKVSNKALPAPIEKTISKAKGQPREPQVYVYPPSRDELTKNQVSLTCLVKGFYPSDIAVEWESNGQPENNYKTTPPVLDSDGSFALVSKLTVDKSRWQQGNVFSCSVMHEALHNHYTQKSLSLSPGK
B2: ACE2Fc-740HA201RF/O24A-DHS (bispecific antibody)
chain: not shown
light: not shown
heavy: QAYLQQSGAELVRPGASVKMSCKASGYTFTSYSMHWVKQTPRQGLEWIGAIYPGNDDTSYNQKFKGKATLTVDRSSSTAYMQLSSLTSEDSAVYFCTRDYSNYPFDYWGQGTTLTVSSASTKGPSVFPLAPSSKSTSGGTAALGCLVKDYFPEPVTVSWNSGALTSGVHTFPAVLQSSGLYSLSSVVTVPSSSLGTQTYICNVNHKPSNTKVDKKVEPKSCDKTHTCPPCPAPELLGGPSVFLFPPKPKDTLMISRTPEVTCVVVDVSHEDPEVKFNWYVDGVEVHNAKTKPREEQYNSTYRVVSVLTVDHHDWLNGKEYKCKVSNKALPAPIEKTISKAKGQPREPQVYTLPPCRDELTKNQVSLWCLVKGFYPSDIAVEWESNGQPENNYKTTPPVLDSDGSFFLYSKLTVDKSRWQQGNVFSCSVMHEALHSHYTQKSLSLSPG
notes: also called 15-23

Columns and labels:
CD19 = molecular target: T1, CD19 (UniProt P15391 20-291)
T1 sequence (looked up): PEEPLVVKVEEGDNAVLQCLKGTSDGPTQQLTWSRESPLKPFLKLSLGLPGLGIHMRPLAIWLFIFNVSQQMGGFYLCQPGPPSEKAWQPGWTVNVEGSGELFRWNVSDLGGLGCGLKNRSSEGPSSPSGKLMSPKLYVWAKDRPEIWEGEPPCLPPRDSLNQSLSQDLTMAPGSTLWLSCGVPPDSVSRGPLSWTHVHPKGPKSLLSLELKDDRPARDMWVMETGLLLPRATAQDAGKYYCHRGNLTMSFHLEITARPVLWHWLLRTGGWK

[1] = molecular target: Recombinant human Fc gamma receptor IIIa, CD16a 158V (human, UniProt P08637 17-208)
[2] = molecular target: T2, Recombinant human Fc gamma receptor IIb/c, CD32b/c (human, UniProt P31994 46-217); assay: SPR (Carterra LSA)
T2 construct: also called FcRγIIb
T2 sequence (looked up): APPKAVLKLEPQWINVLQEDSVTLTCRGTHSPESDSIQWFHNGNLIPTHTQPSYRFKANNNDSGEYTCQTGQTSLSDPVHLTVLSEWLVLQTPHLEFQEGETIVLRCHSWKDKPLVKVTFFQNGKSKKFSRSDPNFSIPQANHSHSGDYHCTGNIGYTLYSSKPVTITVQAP

Recombinant human Fc gamma receptor IIIa, CD16a 158V, sequence (P08637 17-208 F176V limits assumed): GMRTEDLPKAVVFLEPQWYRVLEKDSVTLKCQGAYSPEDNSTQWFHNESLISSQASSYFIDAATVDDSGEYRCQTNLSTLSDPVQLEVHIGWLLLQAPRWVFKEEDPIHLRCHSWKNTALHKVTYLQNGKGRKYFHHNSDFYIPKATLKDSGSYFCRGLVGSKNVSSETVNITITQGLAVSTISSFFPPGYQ

| Binder | Kd (CD19) [nM] | Kd [1] [nM] | binding result [2] |
| --- | --- | --- | --- |
| B1 | 21.8 | 234 | – |
| B2 | – | – | no binding (tested: up to 2000 nM) |
